Source: US20240285725A1 (APELLIS PHARMACEUTICALS, published 2024)
Values belong to the binder of their own block, whether it stands above or below them.

Assays:
Assay in all cases: cell-based or functional assay
[1] = target: T1, complement component C3 (human, UniProt P01024 23-1663)
[2] = target: T1, complement component C3; remark: listed apart in the source
[3] = target: T1, complement component C3; remark: listed apart in the source

- IC50 (read off the curve), classical-pathway complement activation (C3b deposition ELISA, human plasma) [1]: ~700 nM
B1: CA28-AEEAc-Lys-(PEG40k) (peptide)
peptide: ICVWQDWGAHRCTK
modifications: not fully specified; N-terminal acetyl; 1-methyl-tryptophan at position 4; disulfide Cys2-Cys12; AEEAc between Thr13 and Lys; C-terminal amide; linear monofunctional 40 kD PEG (NOF ME-400GS) on the Lys side chain

- IC50, classical complement inhibition assay (C3b deposition ELISA, human plasma), as a function of CA28 moiety concentration [2]: 1930 nM
- IC50 on a molar basis (corrected for 7.5 CA28 moieties per molecule), classical complement inhibition assay [3]: ~260 nM
B2: (CA28-AEEAc)8-PEG40k (peptide)
peptide: ICVWQDWGAHRCTK
modifications: N-terminal acetyl; 1-methyl-tryptophan at position 4; disulfide Cys2-Cys12; AEEAc between Thr13 and Lys; C-terminal amide; Lys side chain coupled to an arm of an eight-arm 40 kD PEG (NOF HGEO-400GS)

- IC50 (read off the curve), classical-pathway complement activation (C3b deposition ELISA, human plasma) [1]: ~700 nM
B3: CA28-AEEAc-Lys(mPEG40K-hexanoyl) (peptide)
peptide: ICVWQDWGAHRCTK
modifications: N-terminal acetyl; 1-methyl-tryptophan at position 4; disulfide Cys2-Cys12; AEEAc between Thr13 and Lys; C-terminal amide; linear 40 kD mPEG (NOF ME-400HS) on the Lys side chain

- IC50 (read off the curve), classical-pathway complement activation (C3b deposition ELISA, human plasma) [1]: ~700 nM
B4: CA28-AEEAc-Lys(mPEG40K-carbonyl) (peptide)
peptide: ICVWQDWGAHRCTK
modifications: not fully specified; N-terminal acetyl; 1-methyl-tryptophan at position 4; disulfide Cys2-Cys12; AEEAc between Thr13 and Lys; C-terminal amide; linear 40 kD mPEG (NOF ME-400TS) on the Lys side chain

- IC50 (read off the curve), classical-pathway complement activation (C3b deposition ELISA, human plasma) [1]: ~700 nM
B5: CA28-AEEAc-Lys(mPEG40K-succinyl) (peptide)
peptide: ICVWQDWGAHRCTK
modifications: N-terminal acetyl; 1-methyl-tryptophan at position 4; disulfide Cys2-Cys12; AEEAc between Thr13 and Lys; C-terminal amide; linear 40 kD mPEG (NOF ME-400CS) on the Lys side chain
